Patent US20180364250

Test system: OTUB1

Chain of UBCH5C (chain, as listed by the source): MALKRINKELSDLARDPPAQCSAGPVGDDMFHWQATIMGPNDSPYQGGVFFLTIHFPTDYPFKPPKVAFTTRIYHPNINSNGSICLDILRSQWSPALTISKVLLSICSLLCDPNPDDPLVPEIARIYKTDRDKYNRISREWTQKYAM

UBCH5C
free ubiquitin released in a real-time deubiquitinase assay (3 µM OTUB1 with or without UbcH5c, 1 nM Atto532-tagged ubiquitin, 1 nM tIVR): OTUB1 activity is upregulated by UbcH5c, and this was detected by the experiment
